What all share (experiment): peptide or protein array; SH2/PTB proteins spotted on aldehyde slides, rhodamine peptide titrated in buffer B (20 mM HEPES, 100 mM KCl, 0.1% Tween-20, 5 mM DTT, pH 7.8), 1 h at room temperature; replicate assays
Holding throughout (conditions): both partners purified

In one assay the target is T1, ZAP70 tandem SH2 domains (human).
T1 construct: ZAP70, human; also called ZAP70-NC; source: bacterial expression, purified

For the next assay, the target named is T2, SH2D2A SH2 domain (human, UniProt Q9NP31 95-186).
T2 construct: SH2D2A, human; source: bacterial expression, purified
T2 sequence (Q9NP31 95-186): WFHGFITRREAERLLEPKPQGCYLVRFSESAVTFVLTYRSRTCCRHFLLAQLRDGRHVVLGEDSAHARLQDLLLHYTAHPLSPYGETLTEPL

In a further assay the target is T3, SOCS5 SH2 domain (human, UniProt O75159 381-476).
T3 construct: SOCS5, human; source: bacterial expression, purified
T3 sequence (looked up): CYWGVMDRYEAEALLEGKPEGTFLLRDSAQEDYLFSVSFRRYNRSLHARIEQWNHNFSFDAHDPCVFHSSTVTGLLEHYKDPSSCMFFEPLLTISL

In a further assay the target is T4, GRAP2 SH2 domain (human, UniProt O75791 58-149).
T4 construct: GRAP2, human; source: bacterial expression, purified
T4 sequence (looked up): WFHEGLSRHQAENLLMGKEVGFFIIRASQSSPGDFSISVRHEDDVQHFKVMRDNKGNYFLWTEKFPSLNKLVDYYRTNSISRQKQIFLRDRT

For a further assay, the target named is T5, GRB7 SH2 domain (human, UniProt Q14451 431-527).
T5 construct: GRB7, human; source: bacterial expression, purified
T5 sequence (Q14451 431-527): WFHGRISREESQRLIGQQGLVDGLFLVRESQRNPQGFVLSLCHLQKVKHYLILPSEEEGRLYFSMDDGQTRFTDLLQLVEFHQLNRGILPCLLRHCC

In the next assay the target is T6, ABL2 SH2 domain (human, UniProt P42684 173-263).
T6 construct: ABL2, human; source: bacterial expression, purified
T6 sequence (looked up): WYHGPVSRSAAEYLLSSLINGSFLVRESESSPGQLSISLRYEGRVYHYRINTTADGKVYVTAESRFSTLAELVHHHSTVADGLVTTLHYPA

The next assay addresses T7, GRB10 SH2 domain (human, UniProt Q13322 493-574).
T7 construct: GRB10, human; source: bacterial expression, purified
T7 sequence (looked up): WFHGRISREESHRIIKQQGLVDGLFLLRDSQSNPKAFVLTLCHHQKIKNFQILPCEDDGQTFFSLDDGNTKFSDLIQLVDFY

The next assay addresses T8, SHF SH2 domain (human, UniProt Q7M4L6 323-418).
T8 construct: SHF, human; source: bacterial expression, purified
T8 sequence (looked up): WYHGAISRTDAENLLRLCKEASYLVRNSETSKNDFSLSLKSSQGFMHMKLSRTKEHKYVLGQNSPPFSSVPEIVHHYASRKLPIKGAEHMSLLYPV

Assay [1] deals with T9, SYK C-terminal SH2 domain (human).
T9 construct: SYK, human; source: bacterial expression, purified

The next assay addresses T10, BCAR3 SH2 domain (human, UniProt O75815 154-253).
T10 construct: BCAR3, human; source: bacterial expression, purified
T10 sequence (looked up): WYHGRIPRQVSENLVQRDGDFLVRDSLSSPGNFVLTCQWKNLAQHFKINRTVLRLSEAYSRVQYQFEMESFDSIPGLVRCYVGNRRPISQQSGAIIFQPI

The target in the next assay is T11, MATK SH2 domain (human, UniProt P42679 122-211).
T11 construct: MATK, human; source: bacterial expression, purified
T11 sequence (looked up): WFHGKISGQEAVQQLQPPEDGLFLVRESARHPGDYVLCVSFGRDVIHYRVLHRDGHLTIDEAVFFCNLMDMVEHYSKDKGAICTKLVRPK

Where “and” joins values, the source holds several entries; their conditions need not be identical. Equal entries are not always repeated. Non-standard residues stand in square brackets, D forms with d. No end group written: not given here. pY = N[C@@H](Cc1ccc(OP(=O)(O)O)cc1)C(=O)O; Rhodamine = not defined here

T1 sequence (P43403 whole entry, the tested form may be a part): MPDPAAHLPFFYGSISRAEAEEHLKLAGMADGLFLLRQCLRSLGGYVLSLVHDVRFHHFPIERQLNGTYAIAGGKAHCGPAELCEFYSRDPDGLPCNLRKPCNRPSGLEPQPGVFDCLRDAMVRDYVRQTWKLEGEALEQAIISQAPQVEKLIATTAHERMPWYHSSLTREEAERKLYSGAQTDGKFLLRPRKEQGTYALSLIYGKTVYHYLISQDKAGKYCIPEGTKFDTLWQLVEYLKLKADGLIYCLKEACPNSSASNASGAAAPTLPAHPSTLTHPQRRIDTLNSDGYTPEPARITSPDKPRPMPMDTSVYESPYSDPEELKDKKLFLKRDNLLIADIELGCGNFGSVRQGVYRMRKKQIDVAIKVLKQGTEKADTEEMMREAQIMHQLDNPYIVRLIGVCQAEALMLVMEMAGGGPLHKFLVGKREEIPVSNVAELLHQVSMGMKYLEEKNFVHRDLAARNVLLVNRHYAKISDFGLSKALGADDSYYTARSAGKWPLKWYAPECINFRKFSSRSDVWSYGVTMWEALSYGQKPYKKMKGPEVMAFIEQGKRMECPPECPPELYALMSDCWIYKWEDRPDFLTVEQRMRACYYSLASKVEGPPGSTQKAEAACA

By Kd is commonly meant the constant that tells how readily two partners part at equilibrium. The low end stands for higher affinity, the high end for lower affinity. Turning to Rhodamine-ETDG[pY]VAPLTCSD (reading uncertain) [ErbB2 pY1127 phosphopeptide, rhodamine-labelled, for protein microarrays], the Kd in the assay with ZAP70 tandem SH2 domains is 2010 nM and 2410 nM; with SH2D2A SH2 domain it was 2750 nM; in the assay with SOCS5 SH2 domain it was 698 nM; in the assay with GRAP2 SH2 domain, 19400 nM; in the assay with GRB7 SH2 domain it was 1600 nM and 2530 nM; with ABL2 SH2 domain, 17 nM and 14.6 nM. The Kd was 1900 nM and 2340 nM with GRB10 SH2 domain; 1020 nM in the assay with SHF SH2 domain; 1920 nM and 2390 nM in assay [1]; 726 nM with BCAR3 SH2 domain; 4400 nM with MATK SH2 domain.

The record behind these values is PMC3433420, “Comprehensive Binary Interaction Mapping of SH2 Domains via Fluorescence Polarization Reveals Novel Functional Diversification of ErbB Receptors” (PLoS ONE, 2012).
